Measured values: article PMC10716038, “Talin and kindlin use integrin tail allostery and direct binding to activate integrins” (Nature Structural & Molecular Biology, 2023)
Blank lines part the entries; values can stand above or below the binder they belong to.

Target: T1, ATTO 488-labelled β3-CT (488–β3-CT) (UniProt O54890 741-787, ATTO 488 at the N terminus)
T1 construct: integrin β3 cytoplasmic tail; source: synthetic peptide (MPIB Core Facility)
T1 peptide (looked up): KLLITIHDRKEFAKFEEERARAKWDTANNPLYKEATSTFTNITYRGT
Test: MST; as a7, with a second unlabelled protein present at near-saturating concentration (named in the quantity or in the printed words); apparent constants (Kd,app*)
Conditions: both partners purified

apparent Kd (Kd,app*) in the presence of KIND2: 102 µM
apparent Kd (Kd,app*) in the presence of KIND2 Y13A: 218 µM
B1: talin-1 head domain (THD1) (domain or fragment, UniProt P26039 1-405, looked up)
chain: MVALSLKISIGNVVKTMQFEPSTMVYDACRMIRERIPEALAGPPNDFGLFLSDDDPKKGIWLEAGKALDYYMLRNGDTMEYRKKQRPLKIRMLDGTVKTIMVDDSKTVTDMLMTICARIGITNHDEYSLVRELMEEKKDEGTGTLRKDKTLLRDEKKMEKLKQKLHTDDELNWLDHGRTLREQGVEEHETLLLRRKFFYSDQNVDSRDPVQLNLLYVQARDDILNGSHPVSFDKACEFAGFQCQIQFGPHNEQKHKAGFLDLKDFLPKEYVKQKGERKIFQAHKNCGQMSEIEAKVRYVKLARSLKTYGVSFFLVKEKMKGKNKLVPRLLGITKECVMRVDEKTKEVIQEWSLTNIKRWAASPKSFTLDFGDYQDGYYSVQTTEGEQIAQLIAGYIDIILKKKKS
notes: talin-1 (TLN1) head domain (F0-F3), residues 1-405; In FC-RDA a copy labelled with ATTO 565 (565–THD1) was the reporter; also called 565–THD1; source: E. coli (DE3) Rosetta 2, purified (IMAC, SEC); not shown: His10, N-terminal, cleaved; SUMO, N-terminal, cleaved

apparent Kd (Kd,app*) in the presence of KIND2: 76 µM
B2: THD1^K402E (domain or fragment, UniProt P26039 1-405, looked up)
chain: MVALSLKISIGNVVKTMQFEPSTMVYDACRMIRERIPEALAGPPNDFGLFLSDDDPKKGIWLEAGKALDYYMLRNGDTMEYRKKQRPLKIRMLDGTVKTIMVDDSKTVTDMLMTICARIGITNHDEYSLVRELMEEKKDEGTGTLRKDKTLLRDEKKMEKLKQKLHTDDELNWLDHGRTLREQGVEEHETLLLRRKFFYSDQNVDSRDPVQLNLLYVQARDDILNGSHPVSFDKACEFAGFQCQIQFGPHNEQKHKAGFLDLKDFLPKEYVKQKGERKIFQAHKNCGQMSEIEAKVRYVKLARSLKTYGVSFFLVKEKMKGKNKLVPRLLGITKECVMRVDEKTKEVIQEWSLTNIKRWAASPKSFTLDFGDYQDGYYSVQTTEGEQIAQLIAGYIDIILKEKKS
notes: talin-1 (TLN1) head domain, residues 1-405, with K402E; In FC-RDA a copy labelled with ATTO 565 was the reporter; also called 565–THD1^K402E; source: E. coli (DE3) Rosetta 2, purified (IMAC, SEC); not shown: His10, N-terminal, cleaved; SUMO, N-terminal, cleaved

apparent Kd (Kd,app*) in the presence of THD1: 54 µM
apparent Kd (Kd,app*) in the presence of THD1 K402E: 16 µM
apparent Kd (Kd,app*) in the presence of THD2: 27 µM
apparent Kd (Kd,app*) in the presence of TLN1-F3: 120 µM
apparent Kd (Kd,app*) in the presence of TLN2-F3: 47 µM
B3: kindlin-2 (KIND2) (natural protein, UniProt Q8CIB5 1-680, looked up)
chain: MALDGIRMPDGCYADGTWELSVHVTDLNRDVTLRVTGEVHIGGVMLKLVEKLDVKKDWSDHALWWEKKRTWLLKTHWTLDKCGIQADAKLQFTPQHKLLRLQLPNMKYVKVKVNFSDRVFKAVSDICKTFNIRHPEELSLLKKPRDPTKKKKKKLDDQSEDEALELEGPLIMPGSGSIYSSPGLYSKTMTPTYDAHDGSPLSPTSAWFGDSALSEGNPGILAVSQPVTSPEILAKMFKPQALLDKAKTNQGWLDSSRSLMEQDVKENEALLLRFKYYSFFDLNPKYDAIRINQLYEQAKWALLLEEIECTEEEMMMFAALQYHINKLSIMTSENHLNNSDKEVDEVDAALSDLEITLEGGKTSTILGDITSIPELADYIKVFKPKKLTLKGYKQYWCTFKDTSISCYKSREESSGTPAHQLNLRGCEVTPDVNISGQKFNIKLLIPVAEGMNEIWLRCDNEKQYAHWMAACRLASKGKTMADSSYNLEVQNILSFLKMQHLNPDPQLIPDQITTDVNPECLVSPRYLKKYKSKQITARILEAHQNVAQMSLIEAKMRFIQAWQSLPEFGITHFIARFQGGKREELIGIAYNRLIRMDASTGDAIKTWRFSNMKQWNVNWEIKMVTVEFADEVRLSFICTEVDCKVVHEFIGGYIFLSTRAKDQNESLDEEMFYKLTSGWV
notes: kindlin-2 (KIND2) without the deletions of ΔKIND2; In FC-RDA a copy labelled with Alexa 647 (647–KIND2) was the reporter; also called 647–KIND2; source: E. coli Rosetta, purified (IMAC, SEC); not shown: His10, N-terminal, cleaved; SUMO, N-terminal, cleaved

apparent Kd (Kd,app*) in the presence of THD1: 21 µM
B4: KIND2^Y13A (natural protein, UniProt Q8CIB5 1-680, looked up)
chain: MALDGIRMPDGCAADGTWELSVHVTDLNRDVTLRVTGEVHIGGVMLKLVEKLDVKKDWSDHALWWEKKRTWLLKTHWTLDKCGIQADAKLQFTPQHKLLRLQLPNMKYVKVKVNFSDRVFKAVSDICKTFNIRHPEELSLLKKPRDPTKKKKKKLDDQSEDEALELEGPLIMPGSGSIYSSPGLYSKTMTPTYDAHDGSPLSPTSAWFGDSALSEGNPGILAVSQPVTSPEILAKMFKPQALLDKAKTNQGWLDSSRSLMEQDVKENEALLLRFKYYSFFDLNPKYDAIRINQLYEQAKWALLLEEIECTEEEMMMFAALQYHINKLSIMTSENHLNNSDKEVDEVDAALSDLEITLEGGKTSTILGDITSIPELADYIKVFKPKKLTLKGYKQYWCTFKDTSISCYKSREESSGTPAHQLNLRGCEVTPDVNISGQKFNIKLLIPVAEGMNEIWLRCDNEKQYAHWMAACRLASKGKTMADSSYNLEVQNILSFLKMQHLNPDPQLIPDQITTDVNPECLVSPRYLKKYKSKQITARILEAHQNVAQMSLIEAKMRFIQAWQSLPEFGITHFIARFQGGKREELIGIAYNRLIRMDASTGDAIKTWRFSNMKQWNVNWEIKMVTVEFADEVRLSFICTEVDCKVVHEFIGGYIFLSTRAKDQNESLDEEMFYKLTSGWV
notes: kindlin-2 (KIND2) with Y13A; In FC-RDA a copy labelled with Alexa 647 was the reporter; also called 647–KIND2^Y13A; source: E. coli Rosetta, purified (IMAC, SEC); not shown: His10, N-terminal, cleaved; SUMO, N-terminal, cleaved
